{"source": "patent US20040248211A1", "about": "“ICAM-related protein” (priority 1992, published 2004)", "key": {"[1]": {"molecular_target": "LFA-1 (CD11a/CD18) on cells (human) (UniProt P20701)", "sequence (P20701 26-1170, chain 1 of 2)": "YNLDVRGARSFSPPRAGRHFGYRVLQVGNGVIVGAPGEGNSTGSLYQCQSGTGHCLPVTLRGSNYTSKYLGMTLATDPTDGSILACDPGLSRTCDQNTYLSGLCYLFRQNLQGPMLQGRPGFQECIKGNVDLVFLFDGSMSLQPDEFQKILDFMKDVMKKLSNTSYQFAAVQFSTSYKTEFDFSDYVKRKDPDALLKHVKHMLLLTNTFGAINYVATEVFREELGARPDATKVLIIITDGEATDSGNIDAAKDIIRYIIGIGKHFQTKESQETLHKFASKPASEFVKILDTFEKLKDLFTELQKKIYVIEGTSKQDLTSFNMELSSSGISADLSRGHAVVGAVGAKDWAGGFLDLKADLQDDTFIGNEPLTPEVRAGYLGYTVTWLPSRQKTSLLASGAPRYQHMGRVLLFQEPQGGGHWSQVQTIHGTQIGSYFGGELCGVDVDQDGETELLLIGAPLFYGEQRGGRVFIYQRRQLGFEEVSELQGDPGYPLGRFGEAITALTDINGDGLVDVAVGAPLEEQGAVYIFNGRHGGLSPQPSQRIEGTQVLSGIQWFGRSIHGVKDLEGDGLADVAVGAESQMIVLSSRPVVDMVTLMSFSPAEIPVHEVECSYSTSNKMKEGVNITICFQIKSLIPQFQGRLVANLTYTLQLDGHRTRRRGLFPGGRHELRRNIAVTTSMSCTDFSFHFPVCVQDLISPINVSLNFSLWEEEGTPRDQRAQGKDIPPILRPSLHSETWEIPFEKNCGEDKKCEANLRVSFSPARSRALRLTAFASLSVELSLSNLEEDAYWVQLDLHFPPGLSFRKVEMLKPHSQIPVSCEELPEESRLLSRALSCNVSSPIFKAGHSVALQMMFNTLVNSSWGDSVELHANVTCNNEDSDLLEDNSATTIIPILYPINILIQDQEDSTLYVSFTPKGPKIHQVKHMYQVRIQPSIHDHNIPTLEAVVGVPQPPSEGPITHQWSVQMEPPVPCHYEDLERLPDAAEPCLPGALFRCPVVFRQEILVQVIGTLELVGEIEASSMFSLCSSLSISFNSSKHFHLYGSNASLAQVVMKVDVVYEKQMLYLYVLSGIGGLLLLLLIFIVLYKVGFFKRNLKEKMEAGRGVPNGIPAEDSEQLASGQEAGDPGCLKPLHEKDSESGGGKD", "sequence (P05107 23-769, chain 2 of 2, further chain)": "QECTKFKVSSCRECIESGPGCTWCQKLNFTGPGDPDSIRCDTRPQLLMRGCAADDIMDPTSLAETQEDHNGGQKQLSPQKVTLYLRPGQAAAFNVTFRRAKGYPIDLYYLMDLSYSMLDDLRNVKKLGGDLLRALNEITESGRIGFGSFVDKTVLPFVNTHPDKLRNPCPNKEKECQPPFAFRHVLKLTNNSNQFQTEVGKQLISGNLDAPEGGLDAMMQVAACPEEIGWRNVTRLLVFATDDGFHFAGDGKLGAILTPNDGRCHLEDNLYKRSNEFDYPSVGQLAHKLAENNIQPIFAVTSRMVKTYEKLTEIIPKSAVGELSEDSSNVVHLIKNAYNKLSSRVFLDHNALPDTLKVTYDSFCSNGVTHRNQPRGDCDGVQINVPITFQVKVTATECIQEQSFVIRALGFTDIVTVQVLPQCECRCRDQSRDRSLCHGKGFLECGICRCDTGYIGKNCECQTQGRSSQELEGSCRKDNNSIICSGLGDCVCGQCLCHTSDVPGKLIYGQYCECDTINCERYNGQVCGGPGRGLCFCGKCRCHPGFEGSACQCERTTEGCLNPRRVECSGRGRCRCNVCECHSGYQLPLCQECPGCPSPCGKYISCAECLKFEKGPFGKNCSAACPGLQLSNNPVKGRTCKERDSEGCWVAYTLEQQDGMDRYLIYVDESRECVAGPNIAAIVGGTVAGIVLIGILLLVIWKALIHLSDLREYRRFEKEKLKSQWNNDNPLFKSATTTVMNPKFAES", "test": "JY cell adhesion to shICAM-R, mAb 10 µg/ml"}, "[2]": {"molecular_target": "LFA-1 (CD11a/CD18) on cells (human) (UniProt P20701)", "test": "neutrophil adhesion to immobilized ICAM-R/Ig, mAb 15 µg/ml"}, "ICAM-1/IgG chimera": {"molecular_target": "ICAM-1/IgG chimera (UniProt P05362)", "sequence (P05362 28-480 limits assumed, change not shown)": "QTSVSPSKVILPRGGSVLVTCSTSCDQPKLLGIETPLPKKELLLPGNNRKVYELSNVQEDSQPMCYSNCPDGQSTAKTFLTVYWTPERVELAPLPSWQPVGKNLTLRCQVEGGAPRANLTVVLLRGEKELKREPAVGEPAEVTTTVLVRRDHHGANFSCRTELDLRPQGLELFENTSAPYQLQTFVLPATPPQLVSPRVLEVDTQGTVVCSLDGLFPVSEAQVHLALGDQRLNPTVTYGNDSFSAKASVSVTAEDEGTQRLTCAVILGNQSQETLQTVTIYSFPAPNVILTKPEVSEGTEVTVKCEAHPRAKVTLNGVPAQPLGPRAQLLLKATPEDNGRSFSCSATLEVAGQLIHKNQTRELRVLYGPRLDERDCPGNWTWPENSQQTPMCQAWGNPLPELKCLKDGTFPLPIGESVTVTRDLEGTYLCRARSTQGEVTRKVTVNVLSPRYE", "test": "adhesion of transfected CHO cells to immobilized chimera, with PMA"}, "[3]": {"molecular_target": "LFA-1 (CD11a/CD18) on cells (human) (UniProt P20701)", "test": "SKW3 cell adhesion to plate-bound shICAM-R, peptide 1-2 mg/ml"}}, "data": [{"substance": "anti-CD18 monoclonal antibody 60.3", "values": [{"measurement": "Inhibition (%) of CD18-dependent JY cell binding", "setting": "[1]", "result": 100, "unit": "%"}]}, {"substance": "anti-CD11a monoclonal antibody TS1/22", "values": [{"measurement": "% inhibition of neutrophil binding to ICAM-R", "setting": "[2]", "result": 50, "unit": "%"}]}, {"substance": "LFA-1 (CD11a/CD18) on cells (from UniProt P20701 26-1170; P05107 23-769) (receptor; other documents disagree on this pair)", "values": [{"measurement": "fold increase in binding", "setting": "ICAM-1/IgG chimera", "result": "2 to 3", "unit": "fold"}]}, {"substance": "ICAM-R domain 1 peptide NGSQI, residues 72-76", "values": [{"measurement": "% Inhibition of cell binding to shICAM-R", "setting": "[3]", "result": 26, "unit": "%"}]}]}
